The values below are quoted from earlier work in paper PMC3909715.

The target of data set [1] is T1, Cys34 (UniProt position 58, QYLQQCPFEDH). Put plainly: chemical modification. The note with it: reduced thiol; ligand state not stated.
For data set [2], the target named is T1, Cys34. Put plainly: kinetics. The note with it: reduced thiol.
Data set [3] deals with T1, Cys34. The note with it: reduced thiol (HSA-SH); ligand state not stated.

Where two headings read alike, the source gives them in different places.

On to “Human serum albumin (HSA) (Homo sapiens)”, for which the pKa entry in data set [1] is on record as “about 8”; in data set [2] (ligand-free (fatty acid-free) HSA), 7.9±0.1; in data set [2] (ligand state not stated), “about 8”; in data set [3] it was under 7.

For orientation: pKa means the pH at which an ionisable group is half protonated.
